Key:
pH4-treated TTR [1] = biological target: T1, pH4-treated TTR (human, UniProt P02766 21-147); assay: Sandwich ELISA (pH 4-TTR)
pH4-treated TTR [2] = biological target: T1, pH4-treated TTR; assay: ELISA; pH4-TTR captured on anti-His-coated plate, mAb 0.31-2.5 µg/ml
Procedure: Four lead mis-TTR mAbs (9D5, 14G8, 6C1, and 5A1) were assayed by ELISA at concentrations ranging from 0.31 to 2.5 μg/ml using both pH4.0-treated TTR (pH4-TTR) and native TTR as the coating antigen. TTR antigen preparation and ELISA protocols are described elsewhere in Materials and Methods (e-g).
Coated and blocked 96-well plates were treated with 50 μl per well of 2.5 μg/ml TTR antigen (either native TTR or pH4-TTR) for 1 hr. at room temperature. The plates were then washed two times with 250 μl per well of wash buffer (1× Tris Buffered Saline containing 0.05% Tween-20). Washed plates were then treated with 50 μl per well of the appropriate anti-TTR monoclonal antibody at concentrations ranging from of 0.31 to 2.5 μg/ml, for 1 hr.
The treated plates were washed 3 times with 250 μl perwell wash buffer. After washing, the plates were treated for 1 hr. with 50 μl per well of detection antibody comprising a 1:5,000 dilution of […] goat-anti-mouse (Jackson ImmunoResearch #115-035-164) in 1×PBS. The plate was then washed 3 times prior to the addition of 100 μl per well TMB substrate (Rockland). The HRP reaction was allowed to proceed at room temperature for 15 min. before quenching with a 50 μl per well volume of 1N […]. Spectroscopic absorbance was measured at a wavelength of 450 nm.

[3] = biological target: T2, analyte of Example 8 (not named); assay: Biacore (SPR); analyte not named
T2 construct: Target of the Biacore run of Hu-6C1-H3bL2

| Kd (pH4-treated TTR [1]) | Kd (pH4-treated TTR [2]) | Kd [3] | koff [3] | kon [3] | Binder |
| --- | --- | --- | --- | --- | --- |
| 257 nM | 282 nM | – | – | – | 9D5 (antibody, V domains shown) VH: EVKLVESGGGLVQPGGSLKLSCAASGFTFSSYTMSWVRQTPEKRLELVAEISNSGDTTYYPDTVKGRFTFSRDNAKNTLYLQMSSLKSEDTAMYYCARHYYYGGGYGGWFFDVWGTGTTVTVSS VL: DIVMTQAAPSVPVTPGESVSISCRSSKSLLHSNGNTYLYWFLQRPGQSPQLLIYRVSNLASGVPDRFSGSGSGTAFTLRISRVEAEDVGVYYCMQHLEYPLTFGAGTKLELK |
| – | – | 1.46 nM | 0.000545 s⁻¹ | 372000 M⁻¹ s⁻¹ | Hu-6C1-H3bL2 (antibody, human IgG1, kappa, V domains shown, also called Hu6C1VHv3b/VLv2; humanized 6C1 heavy chain version 3b / light chain version 2) VH: EVQLVESGGGLVQPGGSLKLSCAASGFTFSNYYMSWVRQAPGKRLEWVAYISIDGNNIYHPDSVKGRFTISRDNAKNTLYLQMNSLKAEDTAMYYCARDSDYGYFDVWGQGTLVTVSS VL: DIVMTQTPLSLPVTPGEPASISCRSSQSIVHSNGNTYLEWYLQKPGQSPKLLIYKVSKRFSGVPDRFSGSGSGTDFTLKISRVEAEDVGVYYCFQGSHVPLTFGGGTKVEIKR |
